Substrate in this data set: CN(C)CCOc1ccc(CC(NC(=O)c2ccccc2)C(=O)O)cc1
The data set can be described thus: cells, lysate or membranes named. Conditions: other: hOAT3-HEK293 cells, Eadie–Hofstee plot, 2 to 1000 µM, 5 min; pH 7.4.

Description: The hOAT1-HEK293, hOAT3-HEK293 and mock cells were cultured in Dulbecco modified Eagle medium (DMEM) containing 10% fetal bovine serum (FBS) and 1% penicillin/streptomycin in an atmosphere of 5% CO2 air at 37 °C. The HEK293 cells were plated on 24-well plates at a density of 5 × 10^5 cells/well. […] Uptake assay was initiated by adding 1 mL of the transporter buffer containing Y101, M8, ETV or probe substrate. Following incubation with gentle shaking, the uptake was terminated at designated time by removing the transporter buffer and washing cells three times with 1 mL of ice-cold HBSS. Next, substrates of Y101, M8, ETV, PAH and ES in cell monolayer were released by lysing the cells with 0.3 mL of 0.1% Triton X-100 for 2 h and determined by liquid chromatography–tandem mass spectrometry (LC–MS/MS). In the time-course uptake assay, Y101 (2.0 µM) and M8 (10 µM) in the presence or absence of PRO (100 µM) were measured in hOAT1-HEK293, hOAT3-HEK293 and mock cells. The concentration-dependent uptake of M8 was determined in hOAT3-HEK293 cells, and incubation time (5 min) was optimized. […] The uptake of ETV (10 µM) with or without Y101 or M8 was also measured in hOAT1-HEK293 and hOAT3-HEK293 cells, respectively. […] Protein concentrations were measured by the bicinchoninic acid procedure (Solarbio, Beijing, China) using bovine serum albumin as the standard. […]

B1: hOAT3 (Homo sapiens) (protein)
chain: MTFSEILDRVGSMGHFQFLHVAILGLPILNMANHNLLQIFTAATPVHHCRPPHNASTGPWVLPMGPNGKPERCLRFVHPPNASLPNDTQRAMEPCLDGWVYNSTKDSIVTEWDLVCNSNKLKEMAQSIFMAGILIGGLVLGDLSDRFGRRPILTCSYLLLAASGSGAAFSPTFPIYMVFRFLCGFGISGITLSTVILNVEWVPTRMRAIMSTALGYCYTFGQFILPGLAYAIPQWRWLQLTVSIPFFVFFLSSWWTPESIRWLVLSGKSSKALKILRRVAVFNGKKEEGERLSLEELKLNLQKEISLAKAKYTASDLFRIPMLRRMTFCLSLAWFATGFAYYSLAMGVEEFGVNLYILQIIFGGVDVPAKFITILSLSYLGRHTTQAAALLLAGGAILALTFVPLDLQTVRTVLAVFGKGCLSSSFSCLFLYTSELYPTVIRQTGMGVSNLWTRVGSMVSPLVKITGEVQPFIPNIIYGITALLGGSAALFLPETLNQPLPETIEDLENWSLRAKKPKQEPEVEKASQRIPLQPHGPGLGSS
Turning to B1, the Km (commonly the substrate concentration at which the rate is half of its maximum) is 367 µM and the Vmax was 414 pmol/min/mg protein.

(Values after article PMC9967645, “OAT3 Participates in Drug–Drug Interaction between Bentysrepinine and Entecavir through Interactions with M8—A Metabolite of Bentysrepinine—In Rats and Humans In Vitro” (Molecules, 2023).)
